Reference: US20120110693, “TARGETING NUCLEIC ACIDS IN MITOCHONDRIA” (published 2012)

T1: pSu9-DHFR (mouse DHFR fused to Neurospora crassa Su9 presequence) (Mus musculus, UniProt P00375 SEQ:1-259)
T1 chain: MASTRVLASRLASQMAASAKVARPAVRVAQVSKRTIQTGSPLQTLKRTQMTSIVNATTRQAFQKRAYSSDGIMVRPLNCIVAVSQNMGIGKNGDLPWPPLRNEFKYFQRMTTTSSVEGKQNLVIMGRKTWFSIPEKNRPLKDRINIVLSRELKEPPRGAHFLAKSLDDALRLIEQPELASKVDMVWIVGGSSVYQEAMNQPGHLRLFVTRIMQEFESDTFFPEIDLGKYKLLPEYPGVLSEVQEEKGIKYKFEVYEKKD

B1: cytosolic tRNAAla transcript (A. thaliana) (ssRNA)
RNA: GGGGAUGUAGCUCAUAUGGUAGAGCGCUCGCUUUGCAUGCGAGAGGCACAGGGUUCGAUUCCCUGCAUCUCCACCA
B2: tRNAAla-sequence DNA oligonucleotide (ssDNA)
DNA: GGGGATGTAGCTCATATGGTAGAGCGCTCGCTTTGCATGCGAGAGGCACAGGGTTCGATTCCCTGCATCTCCACCA

Columns and labels:
[1] = biological target: T1, pSu9-DHFR (mouse DHFR fused to …); experiment: EMSA; shift increases with protein; legend names pSu9-DHFR, text says DHFR; 10 mM Tris pH 7.5, 50 mM NaCl, 1 mM MgCl2, 25 C; details: label: 32P-UTP; tRNA
Procedure: The RNA-protein interaction was studied by means of the shift gel technique. The procedure used is the procedure No. TB110 of Promega, entitled <<gel shift assay system >>. The reaction is conducted in a 9 μL reaction volume comprising: […] of protein, 2 μL of gel shift buffer 5× (20% (v/v) glycerol, 5 mM MgCl₂, 2.5 mM EDTA, 2.5 mM DTT, 250 mM NACl, 50 mM Tris-HCL pH 7.5). The medium is incubated for 10 minutes at room temperature. One μL of radiolabelled tRNA (about 10 fmol corresponding to 20,000 cpm) is then added and the whole is then incubated under mild stirring at 25° C. After migration, the medium is added with one μL of load buffer (250 mM Tris-HCl pH 7.5, 40% (v/v) glycerol). The gel is prepared from a solution of 4% acrylamide/N,N′-methylene bisacrylamide (19/1) in TBE 0.5× buffer (45 mM Tris 45, 1.25 mM EDTA pH 8.3, 45 mM boric acid). The polymerization of the gel is catalyzed by adding 0.04% (w/v) APS and 0.04% (v/v) TEMED. Before charging the samples, the gel is set to a voltage of 350 V for 10 mins. Migration is then carried out for 20 mins at 350 V in the TBE 0.5× buffer. The gel is dried and then exposed against a Phosphorimager plate (Fuji) or subject to autoradiography.
The nucleic acid substrate selected in this case corresponds to the cytosolic tRNAAla of Arabidopsis thaliana (SEQ ID NO: 4). […]

[2] = biological target: pSu9-GFP (UniProt P42212 SEQ:1-307); experiment: stated unable to interact with tRNAAla; no effect on import; details: label: 32P-UTP; tRNA
[3] = biological target: DHFR (mouse, recombinant) (Mus musculus, UniProt P00375 SEQ:4-190); experiment: Southwestern blot; 10 mM Tris pH 7.5, 5 mM Mg acetate, 2 mM DTT, 4 C; details: tags: His tag; label: 5'-32P
Procedure: The DNA substrate selected in this case corresponds to an oligonucleotide (single strand DNA) corresponding to the sequence of cytosolic tRNAAla of A. thaliana (SEQ ID NO: 4). This chemically synthesized oligonucleotide (Sigma Aldrich) and labeled at 5′ was incubated with a membrane onto which the recombinant proteins DHFR and GFP were transferred. No interaction between GFP and the oligonucleotide was observed while a signal was obtained, reflecting an interaction between DHFR and the oligonucleotide.

Binder	binding result [1]	binding result [2]	binding result [3]
B1	binds	no binding	
B2			binds
